Tests used:
HeLa Kyoto [1] = test: solubility in G1/S (NP-40 vs SDS abundance) (log2 ratio); higher = more soluble; conditions: cell cycle stage: G1/S
HeLa Kyoto [2] = test: melting temperature (median over replicates), in situ; higher = more thermally stable
HeLa Kyoto [3] = test: solubility change mitosis vs G1/S (difference of NP-40 vs SDS log2 ratios) (log2 ratio difference); higher = more soluble in mitosis
HeLa Kyoto [4] = test: thermal stability score vs G1/S (z-score of summed log2 fold changes over temperatures); higher = more thermally stable than in G1/S
[5] = cell cycle stage: early G1 (4.5 h after nocodazole release)
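Throughout, for melting temperature (median over replicates), in situ: HeLa Kyoto cells synchronized by double thymidine or nocodazole block, proteins quantified by TMT10plex mass spectrometry, three independent biological replicates.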
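Throughout, for solubility change mitosis vs G1/S (difference of NP-40 vs SDS log2 ratios): synchronized HeLa Kyoto cells (double thymidine block for G1/S, nocodazole release for mitosis), protein amounts in NP-40 versus SDS lysates quantified by mass spectrometry, three biological replicates.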
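Throughout, for solubility in G1/S (NP-40 vs SDS abundance): HeLa Kyoto cells arrested at G1/S by double thymidine block, proteins quantified by TMT10plex mass spectrometry in mild NP-40 versus SDS extracts, three biological replicates.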
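Throughout, for thermal stability score vs G1/S (z-score of summed log2 fold changes over temperatures): synchronized HeLa Kyoto cells, proteins quantified by TMT10plex mass spectrometry, three biological replicates, mitosis taken 0.5 h after nocodazole release, G1/S directly after double thymidine block.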

Row | Sequence | solubility in G1/S (log2) (HeLa Kyoto [1]) | melting temperature (HeLa Kyoto [2]; cell cycle stage: G1/S) [°C] | melting temperature (HeLa Kyoto [2]; cell cycle stage: mitosis) [°C] | solubility change mitosis (log2) (HeLa Kyoto [3]) | thermal stability score (HeLa Kyoto [4]; [5]) | thermal stability score (HeLa Kyoto [4]; cell cycle stage: mitosis)
1 | MATQAYTELQAAPPPSQPPQAPPQAQPQPPPPPPPAAPQPPQPPTAAATPQPQYVTELQSPQPQAQPPGGQKQYVTELPAVPAPSQPTGAPTPSPAPQQYIVVTVSEGAMRASETVSEASPGSTASQTGVPTQVVQQVQGTQQRLLVQTSVQAKPGHVSPLQLTNIQVPQQALPTQRLVVQSAAPGSKGGQVSLTVHGTQQVHSPPEQSPVQANSSSSKTAGAPTGTVPQQLQVHGVQQSVPVTQERSVVQATPQAPKPGPVQPLTVQGLQPVHVAQEVQQLQQVPVPHVYSSQVQYVEGGDASYTASAIRSSTYSYPETPLYTQTASTSYYEAAGTATQVSTPATSQAVASSGSMPMYVSGSQVVASSTSTGAGASNSSGGGGSGGGGGGGGGGGGGGSGSTGGGGSGAGTYVIQGGYMLGSASQSYSHTTRASPATVQWLLDNYETAEGVSLPRSTLYCHYLLHCQEQKLEPVNAASFGKLIRSVFMGLRTRRLGTRGNSKYHYYGLRIKASSPLLRLMEDQQHMAMRGQPFSQKQRLKPIQKMEGMTNGVAVGQQPSTGLSDISAQVQQYQQFLDASRSLPDFTELDLQGKVLPEGVGPGDIKAFQVLYREHCEAIVDVMVNLQFTLVETLWKTFWRYNLSQPSEAPPLAVHDEAEKRLPKAILVLLSKFEPVLQWTKHCDNVLYQGLVEILIPDVLRPIPSALTQAIRNFAKSLESWLTHAMVNIPEEMLRVKVAAAGAFAQTLRRYTSLNHLAQAARAVLQNTAQINQMLSDLNRVDFANVQEQASWVCRCEDRVVQRLEQDFKVTLQQQNSLEQWAAWLDGVVSQVLKPYQGSAGFPKAAKLFLLKWSFYSSMVIRDLTLRSAASFGSFHLIRLLYDEYMYYLIEHRVAQAKGETPIAVMGEFANLATSLNPLDPDKDEEEEEEEESEDELPQDISLAAGGESPALGPETLEPPAKLARTDARGLFVQALPSS [RFX1] | -0.00333 | 53.3 | 53 | -0.21 | -1.2 | -2.15
2 | MAPVHGDDSLSDSGSFVSSRARREKKSKKGRQEALERLKKAKAGEKYKYEVEDFTGVYEEVDEEQYSKLVQARQDDDWIVDDDGIGYVEDGREIFDDDLEDDALDADEKGKDGKARNKDKRNVKKLAVTKPNNIKSMFIACAGKKTADKAVDLSKDGLLGDILQDLNTETPQITPPPVMILKKKRSIGASPNPFSVHTATAVPSGKIASPVSRKEPPLTPVPLKRAEFAGDDVQVESTEEEQESGAMEFEDGDFDEPMEVEEVDLEPMAAKAWDKESEPAEEVKQEADSGKGTVSYLGSFLPDVSCWDIDQEGDSSFSVQEVQVDSSHLPLVKGADEEQVFHFYWLDAYEDQYNQPGVVFLFGKVWIESAETHVSCCVMVKNIERTLYFLPREMKIDLNTGKETGTPISMKDVYEEFDEKIATKYKIMKFKSKPVEKNYAFEIPDVPEKSEYLEVKYSAEMPQLPQDLKGETFSHVFGTNTSSLELFLMNRKIKGPCWLEVKSPQLLNQPVSWCKVEAMALKPDLVNVIKDVSPPPLVVMAFSMKTMQNAKNHQNEIIAMAALVHHSFALDKAAPKPPFQSHFCVVSKPKDCIFPYAFKEVIEKKNVKVEVAATERTLLGFFLAKVHKIDPDIIVGHNIYGFELEVLLQRINVCKAPHWSKIGRLKRSNMPKLGGRSGFGERNATCGRMICDVEISAKELIRCKSYHLSELVQQILKTERVVIPMENIQNMYSESSQLLYLLEHTWKDAKFILQIMCELNVLPLALQITNIAGNIMSRTLMGGRSERNEFLLLHAFYENNYIVPDKQIFRKPQQKLGDEDEEIDGDTNKYKKGRKKAAYAGGLVLDPKVGFYDKFILLLDFNSLYPSIIQEFNICFTTVQRVASEAQKVTEDGEQEQIPELPDPSLEMGILPREIRKLVERRKQVKQLMKQQDLNPDLILQYDIRQKALKLTANSMYGCLGFSYSRFYAKPLAALVTYKGREILMHTKEMVQKMNLEVIYGDTDSIMINTNSTNLEEVFKLGNKVKSEVNKLYKLLEIDIDGVFKSLLLLKKKKYAALVVEPTSDGNYVTKQELKGLDIVRRDWCDLAKDTGNFVIGQILSDQSRDTIVENIQKRLIEIGENVLNGSVPVSQFEINKALTKDPQDYPDKKSLPHVHVALWINSQGGRKVKAGDTVSYVICQDGSNLTASQRAYAPEQLQKQDNLTIDTQYYLAQQIHPVVARICEPIDGIDAVLIATWLGLDPTQFRVHHYHKDEENDALLGGPAQLTDEEKYRDCERFKCPCPTCGTENIYDNVFDGSGTDMEPSLYRCSNIDCKASPLTFTVQLSNKLIMDIRRFIKKYYDGWLICEEPTCRNRTRHLPLQFSRTGPLCPACMKATLQPEYSDKSLYTQLCFYRYIFDAECALEKLTTDHEKDKLKKQFFTPKVLQDYRKLKNTAEQFLSRSGYSEVNLSKLFAGCAVKS [POLA1] | -0.19 | 49 | 50.1 | -0.107 | 1.03 | 3.37
3 | MAEFLDDQETRLCDNCKKEIPVFNFTIHEIHCQRNIGMCPTCKEPFPKSDMETHMAAEHCQVTCKCNKKLEKRLLKKHEETECPLRLAVCQHCDLELSILKLKEHEDYCGARTELCGNCGRNVLVKDLKTHPEVCGREGEEKRNEVAIPPNAYDESWGQDGIWIASQLLRQIEALDPPMRLPRRPLRAFESDVFHNRTTNQRNITAQVSIQNNLFEEQERQERNRGQQPPKEGGEESANLDFMLALSLQNEGQASSVAEQDFWRAVCEADQSHGGPRSLSDIKGAADEIMLPCEFCEELYPEELLIDHQTSCNPSRALPSLNTGSSSPRGVEEPDVIFQNFLQQAASNQLDSLMGLSNSHPVEESIIIPCEFCGVQLEEEVLFHHQDQCDQRPATATNHVTEGIPRLDSQPQETSPELPRRRVRHQGDLSSGYLDDTKQETANGPTSCLPPSRPINNMTATYNQLSRSTSGPRPGCQPSSPCVPKLSNSDSQDIQGRNRDSQNGAIAPGHVSVIRPPQNLYPENIVPSFSPGPSGRYGASGRSEGGRNSRVTPAAANYRSRTAKAKPSKQQGAGDAEEEEEE [TRAFD1] | 0.132 | 53.8 | 53.9 | -0.0897 | -1.71 | -2.27
4 | MAAAAAAGEARRVLVYGGRGALGSRCVQAFRARNWWVASVDVVENEEASASIIVKMTDSFTEQADQVTAEVGKLLGEEKVDAILCVAGGWAGGNAKSKSLFKNCDLMWKQSIWTSTISSHLATKHLKEGGLLTLAGAKAALDGTPGMIGYGMAKGAVHQLCQSLAGKNSGMPPGAAAIAVLPVTLDTPMNRKSMPEADFSSWTPLEFLVETFHDWITGKNRPSSGSLIQVVTTEGRTELTPAYF [QDPR] | 0.236 | 55.5 | 55.5 | -0.0466 | -1.31 | -0.994
5 | MKRSGTLRLLSDLSAFGGAARLRELVAGDSAVRVRGSPDGRHLLLLRPPGAVAPQLLVASRGPGAELERAWPAGQPSPLDAFFLPWPARPALVLVWESGLAEVWGAGVGPGWRPLQSTELCPGGGARVVAVAALRGRLVWCEERQARAEGPSGSPAAAFSHCVCVRTLEPSGEASTSLGRTHVLLHHCPAFGLLASCRQLFLVPTATTWPGVAHVLLIWSPGKGKVMVAAPRLGLSYSKSLNPGRGDTWDFRTLLRGLPGLLSPREPLAVHTWAPTPQGLLLLDFGGTVSLLQSHGGTRAVGTLQEAPVGPWGSAALGTFQGTLACVLGSTLELLDMGSGQLLERKVLSTDRVHLLEPPAPGMEDEEELETRGNLRLLSALGLFCVGWEAPQGVELPSAKDLVFEEACGYYQRRSLRGAQLTPEELRHSSTFRAPQALASILQGHLPPSALLTMLRTELRDYRGLEQLKAQLVAGDDEEAGWTELAEQEVARLLRTELIGDQLAQLNTVFQALPTAAWGATLRALQLQLDGNGKLRSQAPPDVWKKVLGGITAGKEPPNGILPPFELLCQCLCQLEPRWLPPFVELAQQQGGPGWGAGGPGLPLYRRALAVLGEEGTRPEALELELLLSSGRPKAVLQAVGQLVQKEQWDRALDAGLALGPSSPLLRSEIFKLLLAEFAQHRRLDAHLPLLCRLCPPELAPAELLLLLRTYLPDEVGPPTPFPEPGAEPPLTVGLLKALLEQTGAQGWLSGPVLSPYEDILWDPSTPPPTPPRDL [HPS6] | 0.12 | 49.3 | 49.1 | -0.149 | 0.139 | 0.929
6 | MAAEVYFGDLELFEPFDHPEESIPKPVHTRFKDDDGDEEDENGVGDAELRERLRQCEETIEQLRAENQELKRKLNILTRPSGILVNDTKLDGPILQILFMNNAISKQYHQEIEEFVSNLVKRFEEQQKNDVEKTSFNLLPQPSSIVLEEDHKVEESCAIKNNKEAFSVVGSVLYFTNFCLDKLGQPLLNENPQLSEGWEIPKYHQVFSHIVSLEGQEIQVKAKRPKPHCFNCGSEEHQMKDCPMPRNAARISEKRKEYMDACGEANNQNFQQRYHAEEVEERFGRFKPGVISEELQDALGVTDKSLPPFIYRMRQLGYPPGWLKEAELENSGLALYDGKDGTDGETEVGEIQQNKSVTYDLSKLVNYPGFNISTPRGIPDEWRIFGSIPMQACQQKDVFANYLTSNFQAPGVKSGNKRSSSHSSPGSPKKQKNESNSAGSPADMELDSDMEVPHGSQSSESFQFQPPLPPDTPPLPRGTPPPVFTPPLPKGTPPLTPSDSPQTRTASGAVDEDALTLEELEEQQRRIWAALEQAESVNSDSDVPVDTPLTGNSVASSPCPNELDLPVPEGKTSEKQTLDEPEVPEIFTKKSEAGHASSPDSEVTSLCQKEKAELAPVNTEGALLDNGSVVPNCDISNGGSQKLFPADTSPSTATKIHSPIPDMSKFATGITPFEFENMAESTGMYLRIRSLLKNSPRNQQKNKKASE [ZCCHC8] | 0.0806 | 51 | 52.4 | -0.117 | 0.273 | 0.547
7 | MACRGGAGNGHRASATLSRVSPGSLYTCRTRTHNICMVSDFFYPNMGGVESHIYQLSQCLIERGHKVIIVTHAYGNRKGIRYLTSGLKVYYLPLKVMYNQSTATTLFHSLPLLRYIFVRERVTIIHSHSSFSAMAHDALFHAKTMGLQTVFTDHSLFGFADVSSVLTNKLLTVSLCDTNHIICVSYTSKENTVLRAALNPEIVSVIPNAVDPTDFTPDPFRRHDSITIVVVSRLVYRKGIDLLSGIIPELCQKYPDLNFIIGGEGPKRIILEEVRERYQLHDRVRLLGALEHKDVRNVLVQGHIFLNTSLTEAFCMAIVEAASCGLQVVSTRVGGIPEVLPENLIILCEPSVKSLCEGLEKAIFQLKSGTLPAPENIHNIVKTFYTWRNVAERTEKVYDRVSVEAVLPMDKRLDRLISHCGPVTGYIFALLAVFNFLFLIFLRWMTPDSIIDVAIDATGPRGAWTNNYSHSKRGGENNEISETR [PIGA] | -0.107 | 55 | 53.6 | -0.133 | -0.383 | -0.682
8 | MAPVEHVVADAGAFLRHAALQDIGKNIYTIREVVTEIRDKATRRRLAVLPYELRFKEPLPEYVRLVTEFSKKTGDYPSLSATDIQVLALTYQLEAEFVGVSHLKQEPQKVKVSSSIQHPETPLHISGFHLPYKPKPPQETEKGHSACEPENLEFSSFMFWRNPLPNIDHELQELLIDRGEDVPSEEEEEEENGFEDRKDDSDDDGGGWITPSNIKQIQQELEQCDVPEDVRVGCLTTDFAMQNVLLQMGLHVLAVNGMLIREARSYILRCHGCFKTTSDMSRVFCSHCGNKTLKKVSVTVSDDGTLHMHFSRNPKVLNPRGLRYSLPTPKGGKYAINPHLTEDQRFPQLRLSQKARQKTNVFAPDYIAGVSPFVENDISSRSATLQVRDSTLGAGRRRLNPNASRKKFVKKR [NOB1] | -0.457 | 50.3 | 49.8 | 0.197 | 0.938 | 0.387
